Laboratory results as given in article PMC6726835 (Cancer Science, 2019).

Biological target: Recombinant soluble form (amino acids 297-580) of human mesothelin (r-MSLN) (Homo sapiens, UniProt Q13421)
Test: BLI

Row | Kd [nM] | Binder
1 | 78.2 | 89Zr-DFO-scFv H2a064 (scFv, V domains shown) VH: QVQLVQSGGGLVQPGRSLRLSCAASGFTFDDYAMHWVRQAPGKGLEWVSGISWNSGSIGYADSVKGRFTISRDNAKNSLYLQMNSLRAEDTALYYCAKDIGSSGWYGAFDIWGQGTTVTVSS VL: SYELTQPPSVSVSPGQTARITCSGDALPKHYASWYQQKPGQAPVLLIYKDTERPSGIPERFSGSSSGTTVTLTISGVQAEDEADYYCQSADSSVTVVFGGGTKLTVL
2 | 4.68 | Antihuman MSLN His-Tag scFv clone H1a050 (scFv, V domains shown) VH: EVQLVQSGGGLVQPDRSLRLSCAASGFTFDDYAMHWVRQAPGKGLEWVSGISWNSGSIGYADSVKGRFTISRDNAKNSLYLQMNSLRAEDTALYYCAKDLGSYYGSGSGMDVWGQGTTVTVSS VL: SYELTQPPSVSVSPGQTARITCSGNALPKQYAYWYQQKPGQAPVLMIYKDSERPSGIPERFSGSSSGTTVTLTISGVQAEDEADYYCQSADSSHTYKVFGGGTKLTVL
3 | 3.38 | DFO-conjugated His-Tag scFv clone H1a050 (scFv, V domains shown) VH: EVQLVQSGGGLVQPDRSLRLSCAASGFTFDDYAMHWVRQAPGKGLEWVSGISWNSGSIGYADSVKGRFTISRDNAKNSLYLQMNSLRAEDTALYYCAKDLGSYYGSGSGMDVWGQGTTVTVSS VL: SYELTQPPSVSVSPGQTARITCSGNALPKQYAYWYQQKPGQAPVLMIYKDSERPSGIPERFSGSSSGTTVTLTISGVQAEDEADYYCQSADSSHTYKVFGGGTKLTVL
4 | 46.2 | 89Zr-DFO-scFv H1a050 (scFv, V domains shown) VH: EVQLVQSGGGLVQPDRSLRLSCAASGFTFDDYAMHWVRQAPGKGLEWVSGISWNSGSIGYADSVKGRFTISRDNAKNSLYLQMNSLRAEDTALYYCAKDLGSYYGSGSGMDVWGQGTTVTVSS VL: SYELTQPPSVSVSPGQTARITCSGNALPKQYAYWYQQKPGQAPVLMIYKDSERPSGIPERFSGSSSGTTVTLTISGVQAEDEADYYCQSADSSHTYKVFGGGTKLTVL
5 | 59.6 | Antihuman MSLN His-Tag scFv clone H2a064 (scFv, V domains shown) VH: QVQLVQSGGGLVQPGRSLRLSCAASGFTFDDYAMHWVRQAPGKGLEWVSGISWNSGSIGYADSVKGRFTISRDNAKNSLYLQMNSLRAEDTALYYCAKDIGSSGWYGAFDIWGQGTTVTVSS VL: SYELTQPPSVSVSPGQTARITCSGDALPKHYASWYQQKPGQAPVLLIYKDTERPSGIPERFSGSSSGTTVTLTISGVQAEDEADYYCQSADSSVTVVFGGGTKLTVL
6 | 114 | DFO-conjugated His-Tag scFv clone H2a064 (scFv, V domains shown) VH: QVQLVQSGGGLVQPGRSLRLSCAASGFTFDDYAMHWVRQAPGKGLEWVSGISWNSGSIGYADSVKGRFTISRDNAKNSLYLQMNSLRAEDTALYYCAKDIGSSGWYGAFDIWGQGTTVTVSS VL: SYELTQPPSVSVSPGQTARITCSGDALPKHYASWYQQKPGQAPVLLIYKDTERPSGIPERFSGSSSGTTVTLTISGVQAEDEADYYCQSADSSVTVVFGGGTKLTVL
